Laboratory results from patent publication US20090099029.

Biological target: T1, Bovine, dephosphorylated, Myelin Basic Protein (MBP), P02687
T1 chain: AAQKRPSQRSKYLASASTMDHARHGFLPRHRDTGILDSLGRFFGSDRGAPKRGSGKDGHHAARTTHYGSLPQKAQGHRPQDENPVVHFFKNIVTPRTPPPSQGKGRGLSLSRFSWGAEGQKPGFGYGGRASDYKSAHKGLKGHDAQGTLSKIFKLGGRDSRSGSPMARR

Protein	MBP Kinase Activity
EPHA5 (protein) SGSCCECGCGRASSLCAVAHPSLIWRCGYSKAKQDPEEEKMHFHNGHIKLPGVRTYIDPHTYEDPNQAVHEFAKEIEASCITIERVIGAGEFGEVCSGRLKLPGKRELPVAIKTLKVGYTEKQRRDFLGEASIMGQFDHPNIIHLEGVVTKSKPVMIVTEYMENGSLDTFLKKNDGQFTVIQLVGMLRGISAGMKYLSDMGYVHRDLAARNILINSNLVCKVSDFGLSRVLEDDPEAAYTTRGGKIPIRWTAPEAIAFRKFTSASDVWSYGIVMWEVVSYGERPYWEMTNQDVIKAVEEGYRLPSPMDCPAALYQLMLDCWQKERNSRPKFDEIVNMLDKLIRNPSSLKTLVNASCRVSNLLAEHSPLGSGAYRSVGEWLEAIKMGRYTEIFMENGYSSMDAVAQVTLEDLRRLGVTLVGHQKKIMNSLQEMKVQLVNGMVPL	Negative
GSK3A (protein) MSGGGPSGGGPGGSGRARTSSFAEPGGGGGGGGGGPGGSASGPGGTGGGKASVGAMGGGVGASSSGGGPGGSGGGGSGGPGAGTSFPPPGVKLGRDSGKVTTVVATLGQGPERSQEVAYTDIKVIGNGSFGVVYQARLAETRELVAIKKVLQDKRFKNRELQIMRKLDHCNIVRLRYFFYSSGEKKDELYLNLVLEYVPETVYRVARHFTKAKLTIPILYVKVYMYQLFRSLAYIHSQGVCHRDIKPQNLLVDPDTAVLKLCDFGSAKQLVRGEPNVSYICSRYYRAPELIFGATDYTSSIDVWSAGCVLAELLLGQPIFPGDSGVDQLVEIIKVLGTPTREQIREMNPNYTEFKFPQIKAHPWTKVFKSRTPPEAIALCSSLLEYTPSSRLSPLEACAHSFFDELRCLGTQLPNNRPLPPLFNFSAGELSIQPSLNAILIPPHLRSPAGTTTLTPSSQALTETPTSSDWQSTDATPTLTNSS	Weak
IRAK4 (protein) MNKPITPSTYVRCLNVGLIRKLSDFIDPQEGWKKLAVAIKKPSGDDRYNQFHIRRFEALLQTGKSPTSELLFDWGTTNCTVGDLVDLLIQNEFFAPASLLLPDAVPKTANTLPSKEAITVQQKQMPFCDKDRTLMTPVQNLEQSYMPPDSSSPENKSLEVSDTRFHSFSFYELKNVTNNFDERPISVGGNKMGEGGFGVVYKGYVNNTTVAVKKLAAMVDITTEELKQQFDQEIKVMAKCQHENLVELLGFSSDGDDLCLVYVYMPNGSLLDRLSCLDGTPPLSWHMRCKIAQGAANGINFLHENHHIHRDIKSANILLDEAFTAKISDFGLARASEKFAQTVMTSRIVGTTAYMAPEALRGEITPKSDIYSFGVVLLEIITGLPAVDEHREPQLLLDIKEEIEDEEKTIEDYIDKKMNDADSTSVEAMYSVASQCLHEKKNKRPDIKKVQQLLQEMTAS	Strong
GRK7 (protein) MVDMGALDNLIANTAYLQARKPSDCDSKELQRRRRSLALPGLQGCAELRQKLSLNFHSLCEQQPIGRRLFRDFLATVPTFRKAATFLEDVQNWELAEEGPTKDSALQGLVATCASAPAPGNPQPFLSQAVATKCQAATTEEERVAAVTLAKAEAMAFLQEQPFKDFVTSAFYDKFLQWKLFEMQPVSDKYFTEFRVLGKGGFGEVCAVQVKNTGKMYACKKLDKKRLKKKGGEKMALLEKEILEKVSSPFIVSLAYAFESKTHLCLVMSLMNGGDLKFHIYNVGTRGLDMSRVIFYSAQIACGMLHLHELGIVYRDMKPENVLLDDLGNCRLSDLGLAVEMKGGKPITQRAGTNGYMAPEILMEKVSYSYPVDWFAMGCSIYEMVAGRTPFKDYKEKVSKEDLKQRTLQDEVKFQHDNFTEEAKDICRLFLAKKPEQRLGSREKSDDPRKHHFFKTINFPRLEAGLIEPPFVPDPSVVYAKDIAEIDDFSEVRGVEFDDKDKQFFKNFATGAVPIAWQEEIIETGLFEELNDPNRPTGCEEGNSSKSGVCLLL	Negative
IKBKB (protein) MSWSPSLTTQTCGAWEMKERLGTGGFGNVIRWHNQETGEQIAIKQCRQELSPRNRERWCLEIQIMRRLTHPNVVAARDVPEGMQNLAPNDLPLLAMEYCQGGDLRKYLNQFENCCGLREGAILTLLSDIASALRYLHENRIIHRDLKPENIVLQQGEQRLIHKIIDLGYAKELDQGSLCTSFVGTLQYLAPELLEQQKYTVTVDYWSFGTLAFECITGFRPFLPNWQPVQWHSKVRQKSEVDIVVSEDLNGTVKFSSSLPYPNNLNSVLAERLEKWLQLMLMWHPRQRGTDPTYGPNGCFKALDDILNLKLVHILNMVTGTIHTYPVTEDESLQSLKARIQQDTGIPEEDQELLQEAGLALIPDKPATQCISDGKLNEGHTLDMDLVFLFDNSKITYETQISPRPQPESVSCILQEPKRNLAFFQLRKVWGQVWHSIQTLKEDCNRLQQGQRAAMMNLLRNNSCLSKMKNSMASMSQQLKAKLDFFKTSIQIDLEKYSEQTEFGITSDKLLLAWREMEQAVELCGRENEVKLLVERMMALQTDIVDLQRSPMGRKQGGTLDDLEEQARELYRRLREKPRDQRTEGDSQEMVRLLLQAIQSFEKKVRVIYTQLSKTVVCKQKALELLPKVEEVVSLMNEDEKTVVRLQEKRQKELWNLLKIACSKVRGPVSGSPDSMNASRLSQPGQLMSQPSTASNSLPEPAKKSEELVAEAHNLCTLLENAIQDTVREQDQSFTALDWSWLQTEEEEHSCLEQAS	Weak
GRK6 (protein) MELENIVANTVLLKAREGGGGNRKGKSKKWRQMLQFPHISQCEELRLSLERDYHSLCERQPIGRLLFREFCATRPELSRCVAFLDGVAEYEVTPDDKRKACGRQLTQNFLSHTGPDLIPEVPRQLVTNCTQRLEQGPCKDLFQELTRLTHEYLSVAPFADYLDSIYFNRFLQWKWLERQPVTKNTFRQYRVLGKGGFGEVCACQVRATGKMYACKKLEKKRIKKRKGEAMALNEKQILEKVNSRFVVSLAYAYETKDALCLVLTLMNGGDLKFHIYHMGQAGFPEARAVFYAAEICCGLEDLHRERIVYRDLKPENILLDDHGHIRISDLGLAVHVPEGQTIKGRVGTVGYMAPEVVKNERYTFSPDWWALGCLLYEMIAGQSPFQQRKKKIKREEVERLVKEVPEEYSERFSPQARSLCSQLLCKDPAERLGCRGGSAREVKEHPLFKKLNFKRLGAGMLEPPFKPDPQAIYCKDVLDIEQFSTVKGVELEPTDQDFYQKFATGSVPIPWQNEMVETECFQELNVFGLDGSVPPDLDWKGQPPAPPKKGLLQRLFSRQDCCGNCSDSEEELPTRL	Negative
